Publication PMC4138078 (2014)
Ends that are not written are not given here.

Experiments:
[1] = molecular target: T1, CAL (CFTR-associated ligand) PDZ (Homo sapiens, UniProt Q9HD26); assay: ITC
[2] = molecular target: T1, CAL (CFTR-associated ligand) PDZ; assay: SPR

B1: iCAL36 P-4 Ac-K (peptide)
chain: ANSRWK(Ac)TSII
B1 showed a Kd [1] of 49.4 µM and a Kd [2] of 64.6 µM.

B2: iCAL36 P-1 FB-K (peptide)
chain: ANSRWPTSKI
With B2 the Kd [1] was 12.8 µM and the Kd [2] was 27.9 µM.

B3: iCAL36 P-1 Tfa-K (peptide)
chain: ANSRWPTSKI
B3 gave a Kd [1] of 34.5 µM and a Kd [2] of 22.3 µM.

B4: iCAL36 P-1 Ac-K (peptide)
chain: ANSRWPTSK(Ac)I
B4 was tested, and the Kd [1] was 26.4 µM and the Kd [2] was 39.5 µM.

B5: iCAL36 P-3 Ac-K (peptide)
chain: ANSRWPK(Ac)SII
Work on B5 yielded a Kd [1] of 91.9 µM and a Kd [2] of 122 µM.

B6: iCAL36 P-1 BB-K (peptide)
chain: ANSRWPTSKI
B6 gave a Kd [1] of 20.7 µM and a Kd [2] of 20 µM.

B7: iCAL36 P-5 Ac-K (peptide)
chain: ANSRK(Ac)PTSII
Binder B7 has a Kd [2] of 298 µM.
